This passage reports Kd results from patent publication US20190000969A1 (AbbVie / Abbott, published 2019).

The test deals with T1, hUPK1B(108-229)-Fc, second extracellular domain of human UPK1B fused to human IgG2 Fc (human, UniProt O75841 108-229).
T1 construct: Expressed behind an IgK signal peptide, which is not part of the secreted protein; also called hUPK1B-Fc; Fc-fusion human UPK1B protein; not shown: human IgG2 Fc protein
T1 sequence: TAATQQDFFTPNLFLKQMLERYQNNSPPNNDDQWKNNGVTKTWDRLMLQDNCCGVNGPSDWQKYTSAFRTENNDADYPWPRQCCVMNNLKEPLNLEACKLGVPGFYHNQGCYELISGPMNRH
Nature of the test: SPR, Biacore T200; human UPK1B Fc-fusion captured on anti-human chip, papain-digested Fab as analyte, 1:1 Langmuir fit.

B1: chimSC115.18 (Fab, V domains shown)
VH: QVQLQQPGAELVRPGSSVKLSCKASGYTFTSYWMHWVKQRPMQGLEWIGNIDPSDSEIYYNQKFKDKATLTVDKSSGTAYMQLSSLTSEDSAVYYCARRSGSRDYYGMDDWGQGTSVTVSS
VL: DIVMTQSPSSLTVTAGEKVTMRCKSSQSLLNSGNQKNYLTWYQQKPGQPPKLLISWASTRDSGVPDRFTGSGSRTDFILTISSVQAEDLAVYYCQNDYSYPLTFGAGTKLELK
notes: also called Fab fragment (papain-digested) of chimeric SC115.18; parental chimeric antibody
B1: the Kd – broadly, a measure of binding affinity in units of concentration – came out at 3.6 nM.
